Reference: IntAct's records for PubMed 26635368

B1: Sprouty-related, EVH1 domain-containing protein 1 (Homo sapiens), Q7Z699 (parent)
chain: MSEETATSDNDNSYARVRAVVMTRDDSSGGWLPLGGSGLSSVTVFKVPHQEENGCADFFIRGERLRDKMVVLECMLKKDLIYNKVTPTFHHWKIDDKKFGLTFQSPADARAFDRGIRRAIEDISQGCPESKNEAEGADDLQANEEDSSSSLVKDHLFQQETVVTSEPYRSSNIRPSPFEDLNARRVYMQSQANQITFGQPGLDIQSRSMEYVQRQISKECGSLKSQNRVPLKSIRHVSFQDEDEIVRINPRDILIRRYADYRHPDMWKNDLERDDADSSIQFSKPDSKKSDYLYSCGDETKLSSPKDSVVFKTQPSSLKIKKSKRRKEDGERSRCVYCQERFNHEENVRGKCQDAPDPIKRCIYQVSCMLCAESMLYHCMSDSEGDFSDPCSCDTSDDKFCLRWLALVALSFIVPCMCCYVPLRMCHRCGEACGCCGGKHKAAG

Variants of: B1
Settings: with nf1_human NF1, P21359
Chain of nf1_human NF1, P21359 (P21359 whole entry): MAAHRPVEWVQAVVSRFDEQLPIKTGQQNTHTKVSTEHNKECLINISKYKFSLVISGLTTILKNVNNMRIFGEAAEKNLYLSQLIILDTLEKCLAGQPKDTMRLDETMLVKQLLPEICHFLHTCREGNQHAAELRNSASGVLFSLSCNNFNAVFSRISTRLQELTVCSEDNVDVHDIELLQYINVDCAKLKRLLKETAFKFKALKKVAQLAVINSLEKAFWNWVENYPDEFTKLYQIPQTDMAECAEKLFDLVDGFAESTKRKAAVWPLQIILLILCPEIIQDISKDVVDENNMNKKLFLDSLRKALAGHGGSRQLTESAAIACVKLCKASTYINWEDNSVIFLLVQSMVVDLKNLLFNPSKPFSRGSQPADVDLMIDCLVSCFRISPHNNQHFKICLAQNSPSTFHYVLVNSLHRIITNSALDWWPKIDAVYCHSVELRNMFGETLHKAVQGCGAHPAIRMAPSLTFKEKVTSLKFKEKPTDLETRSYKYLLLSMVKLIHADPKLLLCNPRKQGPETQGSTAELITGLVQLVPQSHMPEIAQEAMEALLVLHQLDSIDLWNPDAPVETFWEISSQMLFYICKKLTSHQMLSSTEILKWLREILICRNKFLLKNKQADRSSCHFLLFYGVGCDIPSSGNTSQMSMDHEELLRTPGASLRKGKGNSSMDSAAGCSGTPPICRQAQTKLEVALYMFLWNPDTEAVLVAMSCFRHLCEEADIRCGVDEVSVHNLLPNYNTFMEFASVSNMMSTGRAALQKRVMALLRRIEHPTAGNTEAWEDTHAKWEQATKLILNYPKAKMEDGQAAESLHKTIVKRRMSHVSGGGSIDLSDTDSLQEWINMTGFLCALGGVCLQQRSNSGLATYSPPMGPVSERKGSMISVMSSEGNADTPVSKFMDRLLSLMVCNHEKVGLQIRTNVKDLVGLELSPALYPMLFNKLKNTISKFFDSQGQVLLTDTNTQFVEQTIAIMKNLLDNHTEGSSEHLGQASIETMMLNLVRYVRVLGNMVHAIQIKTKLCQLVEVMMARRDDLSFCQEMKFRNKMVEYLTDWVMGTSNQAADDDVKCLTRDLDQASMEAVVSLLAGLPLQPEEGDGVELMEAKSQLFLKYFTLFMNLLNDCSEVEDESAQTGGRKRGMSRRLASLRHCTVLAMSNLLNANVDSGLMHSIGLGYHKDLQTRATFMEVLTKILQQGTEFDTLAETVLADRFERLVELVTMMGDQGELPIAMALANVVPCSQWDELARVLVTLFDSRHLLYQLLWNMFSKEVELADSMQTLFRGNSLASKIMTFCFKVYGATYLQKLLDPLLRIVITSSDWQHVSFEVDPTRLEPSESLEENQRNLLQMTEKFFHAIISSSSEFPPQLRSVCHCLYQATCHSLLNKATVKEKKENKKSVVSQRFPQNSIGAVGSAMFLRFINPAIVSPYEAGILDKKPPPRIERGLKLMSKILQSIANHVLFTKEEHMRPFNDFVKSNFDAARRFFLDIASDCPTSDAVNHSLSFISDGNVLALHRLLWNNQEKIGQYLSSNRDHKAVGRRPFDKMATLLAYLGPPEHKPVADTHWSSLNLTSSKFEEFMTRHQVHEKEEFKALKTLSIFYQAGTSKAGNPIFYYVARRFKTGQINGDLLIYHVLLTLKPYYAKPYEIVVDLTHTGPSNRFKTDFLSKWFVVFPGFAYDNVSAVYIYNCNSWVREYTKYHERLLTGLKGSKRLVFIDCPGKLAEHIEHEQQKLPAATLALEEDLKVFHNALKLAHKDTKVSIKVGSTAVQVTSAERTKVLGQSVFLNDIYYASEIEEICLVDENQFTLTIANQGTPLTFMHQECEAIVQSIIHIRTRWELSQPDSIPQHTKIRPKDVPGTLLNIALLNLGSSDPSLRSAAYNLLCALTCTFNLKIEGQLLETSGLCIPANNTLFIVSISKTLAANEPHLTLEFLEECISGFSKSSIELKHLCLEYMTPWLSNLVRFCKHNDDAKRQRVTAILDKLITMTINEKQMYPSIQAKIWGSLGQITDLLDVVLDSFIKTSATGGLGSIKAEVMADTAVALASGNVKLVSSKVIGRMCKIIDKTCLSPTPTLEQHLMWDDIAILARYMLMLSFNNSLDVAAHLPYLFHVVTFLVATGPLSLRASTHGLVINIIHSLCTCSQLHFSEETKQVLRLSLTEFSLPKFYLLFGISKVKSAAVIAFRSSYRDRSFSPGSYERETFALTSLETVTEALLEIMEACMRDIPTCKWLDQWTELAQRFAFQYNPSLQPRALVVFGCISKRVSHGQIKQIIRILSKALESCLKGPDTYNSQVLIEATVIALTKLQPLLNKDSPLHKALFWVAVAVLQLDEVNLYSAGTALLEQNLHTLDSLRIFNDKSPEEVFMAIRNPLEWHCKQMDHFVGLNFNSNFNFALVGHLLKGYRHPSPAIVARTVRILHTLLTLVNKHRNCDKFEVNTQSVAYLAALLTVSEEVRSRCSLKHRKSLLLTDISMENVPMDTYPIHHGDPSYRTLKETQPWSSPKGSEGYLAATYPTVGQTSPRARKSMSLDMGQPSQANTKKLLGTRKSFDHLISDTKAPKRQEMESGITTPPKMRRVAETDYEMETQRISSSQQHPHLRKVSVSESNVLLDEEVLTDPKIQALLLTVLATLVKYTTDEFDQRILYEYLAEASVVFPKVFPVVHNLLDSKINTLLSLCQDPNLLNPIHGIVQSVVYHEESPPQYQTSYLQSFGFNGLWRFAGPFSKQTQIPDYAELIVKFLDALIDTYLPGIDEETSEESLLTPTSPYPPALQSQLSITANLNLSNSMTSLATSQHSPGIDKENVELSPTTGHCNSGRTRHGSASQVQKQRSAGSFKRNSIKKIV

| Variant | effect of a mutation on the interaction |
| --- | --- |
| W92R | disrupting interaction strength |
| G100D | decreasing interaction strength |
| I116N | decreasing interaction strength |

Continued, values first:

| effect of a mutation on the interaction | Variant |
| --- | --- |
| disrupting interaction strength | T88K |
| decreasing interaction strength | T102M |
| disrupting interaction strength | T102K |
| decreasing interaction strength | T102R |

Variants of: B1
Settings: with nf1_human NF1, P21359
Remark: another data set of the same source

| Variant | effect of a mutation on the interaction |
| --- | --- |
| T102R | disrupting interaction strength |
